This data set in a line: soluble on expression in E. coli; label from the status in PepcDB or PDB records.
With “MDAEPKRKFGVVVVGVGRAGSVRLRDLKDPRSAAFLNLIGFVSRRELGSLDEVRQISLEDALRSQEIDVAYICSESSSHEDYIRQFLQAGKHVLVEYPMTLSFAAAQELWELAAQKGRVLHEEHVELLMEEFEFLRREVLGKELLKGSLRFTASPLEEERFGFPAFSGISRLTWLVSLFGELSLISATLEERKEDQYMKMTVQLETQNKGLLSWIEEKGPGLKRNRYVNFQFTSGSLEEVPSVGVNKNIFLKDQDIFVQKLLDQVSAEDLAAEKKRIMHCLGLASDIQKLCHQKK”, the “soluble on expression in E. coli” value is “soluble”.
Next, “TYSLRTFFVRESAEGLTQGELMKLIKEIVENEDKRKPYSDQEIANILKEKGFKVARRTVAKYREMLGIPSSRERRI”: “soluble”; “MGKRKAFIDKKASQSFRLVPDNRERSERFKPTQEHLEEQQKYGVYYDDDYDYLQHMRAVNEPMKLENVHEEVEKTTIKTSGSSAFPPAPPLFGLVGALKKPEFFDEDVANALEEVTDDRNTGELEDNFITLAGGLLDERTTVYRSTRRGEDSEEEEDDDEDDEMYDDYNDDELFGEEAVGEIRVERADQRVIDNAFEELMDREYNTDQIGELDGDDYDVGGALEPNAGRLHKLINDKGPSNAEYDEELAKHYVRERMRLIEEGVIKDKEEYEIVEVDEGTNKKMKWDCESFATQYTNIYNHPTLIKEPRGLSRKALKRFDKAVEEMDIAEEDEDDDEDMEDDDDKESVFSTVSTFRPKNETPEQRSLRKKAVKEARKLRRVEKKANKTMFAEEKRKLAKGRIGQIKARPI”: “not soluble”.
In the case of “AHHHHHHGSKFPKNFMFGYSWSGFQFEMGLPGSEVESDWWVWVHDKENIASGLVSGDLPENGPAYWHLYKQDHDIAEKLGMDCIRGGIEWARIFPKPTFDVKVDVEKDEEGNIISVDVPESTIKELEKIANMEALEHYRKIYSDWKERGKTFILNLYHWPLPLWIHDPIAVRKLGPDRAPAGWLDEKTVVEFVKFAAFVAYHLDDLVDMWSTMNEPNVVYNQGYINLRSGFPPGYLSFEAAEKAKFNLIQAHIGAYDAIKEYSEKSVGVIYAFAWHDPLAEEYKDEVEEIRKKDYEFVTILHSKGKLDWIGVNYYSRLVYGAKDGHLVPLPGYGFMSERGGFAKSGRPASDFGWEMYPEGLENLLKYLNNAYELPMIITENGMADAADRYRPHYLVSHLKAVYNAMKEGADVRGYLHWSLTDNYEWAQGFRMRFGLVYVDFETKKRYLRPSALVFREIATQKEIPEELAHLADLKFVTRK”, the “soluble on expression in E. coli” value was “not soluble”.
Under “MPQFSNRRRVPHSAQQMFDLVADVERYPQFVPLCKALKIRERIQQPDGNEVVIADMTVSFKLVQETFTSRVTLDRANLKILVEYLKGPFSNLENRWTFAAKTERACEVGFFIAYEFKSRMLATLMGAMFDTAFHRFAEAFETRADQIYGTGPKLSRALEHHHHHH” stands “not soluble”.
Under “MGSDKIHHHHHHMKSRFLLKIFIFLAVFGVDSVRAADCTEKTFKTGTVCVCSLDSCDEIPPLDITMGQAALYTTSHTGARLHRDVIYATDTEPFGTLHMTIDSSKKYQTIQGFGSTFSDASGANLKSLPDKLSDLIMKQYFSDTGLNLQFGRVPIASTDFSGRVYSYNDVANDYSMQNFNLTKEDFQWKIPYIKNAQKYNPNLKLFAAPWAAPGWLKTTKEMTGPGALNGKAGDNYHQAYAKYFVRFLEEYGKSGISFWGLSTQNQPTLGSDKKNKIQSTLFTAETQRDFIKTDLGPALAASSSGKDVKLLILDDNRGNLPKWADTVLNDMDAAKYVGGIGVHAYQDGETDNHLDETHKKHPNFFILGTEASEGYGSKDTHVDYGNWDRAADTASDILDNMNNWMTGWTERNLILDALGGPSWVSDYTDAPVIAFPAMAQFYKQPMFYAIAHFSHFIKPGAVRIDHSLNVIELEVETTAFLNPDGSKVIVMLNKGSLVSTEHTVVVQDAADSRNHYHFTLPHRAITTLYIQTSQF” stands “not soluble”; under “MEILEEKPKEGKVKIKVETLDDLWHLYHIITPGDVVYAKTLRKQSQRSDSLRPEKVEVIPVFLGVKVEKINFHKFANQLRVTGPIIYASREDVPLGKYHTIAVEPGTIITLQKERWKPYYIERLKEAVEASKRAKVMIVTIEDGEAEMAIVREYGLDFIATIRHNLGGKRYNIKREDEERKFFHDVAKTMKDVMSRENIQRAIVAGPGFYKEDFYKFLKENYPDLASKIVLDDTSMGGRVGIYEVIKRGTVDKVYSESRIANEIKLVEKVIERIAKDEPVAYGMKEVEEAVNYGAVEILLVLDELLKGDNREKVEELMELARSLRSKVVVVSSEHEGGEKLKALGGIAGILRFKIK”, “soluble”; under “MGSDKIHHHHHHMTIVYLYTALCTVGGADRSIIQKANYLADEMHQDVFIITDSQKERPPVFPISPRIRHIDIGIDFDRQYHHNLLVRGYYYFTLMHLYRKKLEYWLKTLKPDIVISTLGRELDFLTQLDDGSVKIGESHIAKPYTRNLHLMEQRGFPYKQIARHWRKKQEEAVKKLDALVVLTQHDADNWKEVKKACVIPNFLPFSPEKGSSCLEKRIISIGRYSEQKGYDRLIEAWIKVNRKHPDWHIRIYGEGQDRNSLQELIEKHHIENSFSLCPPTKSIQEKYLESSIYVMSSRFEGLPMALLEAMACGVPCISFDCPYGPAEIITPEEDGILVKNGNTDELADAICRLIEDTDKRIRMGKQAQKNIQRYSREEVMKLWDELFNTLTTARP”, “not soluble”.
On to “MGSDKIHHHHHHKRQVSGDESYLDAAPLAELHAPAGMILPITTGDYVIPVTKGSGAVGKALDIRPPAQPLALVSGARTQFSGDTATLLVENGRSSTLWPQVVSVIQAKNYPIEKRDDASQTLTTDWVNWNRLDEDEQYRGRYQISVKPQGYQQAVTVKLVNLEQAGKPVADAASLQRYSTEMMNVISAGLDKTATDAANAAQNRSAATMDVQSAADDTGLPMLVVRGPFNLVWQRLPAALEKVGMKVTDSTRSQGSMAVTYKPLSDSDWRDLGASDPGLASGDYKLQVGDLDNRSSLQFIDPKGHTLTQSQNDALVAVFQAAFNK”, for which the “soluble on expression in E. coli” value was “not soluble”.
Under “MGSDKIHHHHHHMADRIEFVKNYSDLSTNKGFQFEFYCDRCGSGYRTRFKPSITGTVTGVLDTAGSLLGGLFSSAADVSERVRSASWEKSHDDAFEDACNELKPDFIQCPRCSSWVCRQKCWNKKKGLCKECAPDLGVEMAAAQASKSVEEIWAHAAMAEEDKKLGLENWRENVRASCPECEAPLASNAKFCPECGAKLKAAQFCPSCGAKVNPGSKFCAECGEKF” stands “not soluble”.
Next, “MTVPEEAQTLIGKHYRAPDHFLVGREKIREFAVAVKDDHPTHYSEPDAAAAGYPALVAPLTFLAIAGRRVQLEIFTKFNIPINIARVFHRDQKFRFHRPILANDKLYFDTYLDSVIESHGTVLAEIRSEVTDAEGKPVVTSVVTMLGLEHHHHHH”: “not soluble”.
Next, “GTQSTHESLKPQRVQFQSRNFHNILQWQPGRALTGNSSVYFVQYKIYGQRQWKNKEDCWGTQELSCDLTSETSDIQEPYYGRVRAASAGSYSEWSMTPRFTPWWETKIDPPVMNITQVNGSLLVILHAPNLPYRYQKEKNVSIEDYYELLYRVFIINNSLEKEQKVYEGAHRAVEIEALTPHSSYCVVAEIYQPMLDRRSQRSEERCVEIP”: “soluble”.
For “MKPDETPMFDPSLLKEVDWSQNTATFSPAISPTHPGEGLVLRPLCTADLNRGFFKVLGQLTETGVVSPEQFMKSFEHMKKSGDYYVTVVEDVTLGQIVATATLIIEHKFIHSCAKRGRVEDVVVSDECRGKQLGKLLLSTLTLLSKKLNCYKITLECLPQNVGFYKKFGYTVSEENYMCRRFLK”, the “soluble on expression in E. coli” value was “soluble”.
As for “MASEHFDMWESRFSADGYLFGTAPNAFLASCHDLLPKQGRALAIADGEGRNGVFLAECGLSVLSVDFSPTAQAKAHKLAAERGVTIETRTADLLSWQWPGGFDVIAGIFFQFVEPEQRPQIFQQIRAALKPGALLLIEGYRPKQLAYKTGGPSRAENLYTRELLEQAFGDFDNLSIRERDSEIVEGAGHAGLSALIDLIGWKPKLEHHHHHH”, the “soluble on expression in E. coli” value is on record as “not soluble”.
Under “MAHHHHHHMAANEGNQSCMDALSSITFAQLAGPLQPVYGPSRVPRHQQFVDLVTDSSGMSPFIPFGTQGSANSSTAFPVDNAYLSKRAPPESEGQNRAAYYNNSSASMQTPEKVDKPQMLRQVSVGAPTPSSGMGMTASPATVCRYITHATPGSALLDETCTRTYLRSAPMNFVASTGITTDNAIGAVSNAVLSAAAAALPSVKVSIDDKPTSLAIELEQAYEEHVHESKRRVGDKVKRKEKKVLVTVGFPGVDNVPQMISDGTEEQLLNKEEVEQGKRRRERRQSRGKNKQKGDNNNNNCIFHDGDKFVSNFSSIHADNESHGECGDRKFLVTLRCHGHRDVTAICCLRLSKGKYVIFEADRGVDLGEVINVKELISEPSGNSAPAQVLRCALDEEVEDWKGPLVERENEAVEECRHVCEQLGLTIRVVGAAYQFDRQKLTFMYESDDRVDFRALLQVMFSKFRCRIWMERRGRGHQDNDAHTG” stands “not soluble”.
Next, “MSLSIPERKEFTKLYDVYDEITSKYYKDTNSTTMIDGAISGMVNSLDDPYSTFMSKKESSEFNDTISASFEGIGAEIQEKDGAIVIVSPIKNSPAEKAGLRPQDIITQVDGKSVKGDTATEATQKIRGEKGTKVTLTIQRSNEDKPFDVTITRDEIPIETVYKEMGSDKIAHVTISTFSETTYDELEKALKSLEKDGMKGLVLDLRGNPGGLLDQAVSISSLFVPDGKIVVQEQDKDGDKSAIKADSSSHGDYKVKVPTTMLIDGGSASASEILAAAAKESGGIKLVGTKSFGKGTVQTATTLSDDSTLKLTVAKWLTPNSEWIHEKGITPDVVVNMPDYATMTIPSSTKVYKNGDFGDDVKTIETLLKALDYNVGKVDGLYDTDTEYAVQRFQTANKLDVTGIMTGVTTDKLVELTQKHLKETDPQLQKAKALVKEGHHHHHH”: “soluble”.
Under “MILLLLLFILGSVSPDELISTRCQAQCLHLMDQRLQNNMELRKTLKHHIIQLCKEDATCSACSAPCREQFDDIKACKKSCVASDDRETCEDSCHYLQRIYQEKPGACPSVSNQSNYECSALCQMDGECPETQKCCSSGCSRQCLKPRSSDIKLLPIPRNISVQERKRKRSIIIRWATGRLSKAQQNENANLFLVQWRWGLHADESAMTEWQTVTVRNKPYAILKHLLSPGRFYEFRTAAVSQEGSLGFSSPSKPFKISKEAKAPPPPKDLSLGASKVVASGLWNQMVHWNPPPSDLPIKNYQISWASSTKSEADAFEEQMRKKSTLEFAAHEKRSLQSDDDEEFIGIQERDRQSVVVPSHATSSEITGLFPNSVYLVEIHASVDSSDGELHGEKGVVFIRTADSLSAVPEDREPYTGPKARIAHGSEELKIEASLKDLKTSSHAPNRPNSPQPAHLEIQTPFFDTELQTQLNWLNAAHCTPAKRQFSVKVRKTLCREYQPNHHSDTRWHDLRVTDCSALLKGLSFDCDYKVEVTDTLTGDFVVDGVFSTDTCDQTSSLTPIDCSSVTTPIQCQVTSESSAHCHWTRHHDAMQTVIGYRILLSSPINHDTNTTINQPQLREVRYENLAPGYVYTVEVQSITNKGLGRTVSTQFVTHPDLDSNAIQRFPGGEIIELPLESSGKLSIFSIFSSFFLVLLLRLL” stands “not soluble”; under “QLGKDHAIVERNEKIDDAFKSDPASYQSVYDAQGRIKDGQEWMRVSLKGRFDANNEVLLRMRPVEGTPAYQSLVPFTLESGESLLINRGFVPGDAANVPELAAVPTETVTIVAHARANEGMPASAPMSAHGYQQVYGINTTQISEITHTTLGTDFAQLSQDQPGVLNAMPIPQLDRGNHLSYGLQ”, “not soluble”.
Turning to “MGSDKIHHHHHHMTEKLVAEKISNRHPAAAPLATGQVPWAIKGELILNCNCTVFCPCVVSLGKHAPTEGYCQAWSGVRIDEGHYGDEDLSGLNVGLMLEIPGLMARGNWKAAAYIDERSSSAAYEGLVNIFSGKARGTTGLFAVLVSEFLGAERAPVIFETEGNARRLMVGKKIQGEIVPVPGKGGADQVVTNTEYWMGPDITVATATKGRVRAFGRVWDFDGRSAEICQIDWSGPR”, the “soluble on expression in E. coli” value is “not soluble”.
